According to publication PMC6398608 (Nature medicine, 2018):

Columns and labels:
[1] = target: IL-2 receptor beta/gamma (Homo sapiens) (UniProt P14784); conditions: cited from earlier work
[2] = target: human interleukin-2 (recombinant IL-2, Humanzyme) (human, UniProt P60568); assay: SPR
[3] = target: human IL-2 crystallised with the F5111 Fab (human, UniProt P60568); assay: crystal structure
Chain of human IL-2 crystallised with the F5111 Fab (P60568 21-153): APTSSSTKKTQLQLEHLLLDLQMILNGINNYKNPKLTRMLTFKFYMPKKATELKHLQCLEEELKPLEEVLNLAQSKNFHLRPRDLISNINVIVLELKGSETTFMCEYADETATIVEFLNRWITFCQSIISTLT

Chain of IL-2 receptor beta/gamma (Homo sapiens) (P14784 27-240, chain 1 of 2): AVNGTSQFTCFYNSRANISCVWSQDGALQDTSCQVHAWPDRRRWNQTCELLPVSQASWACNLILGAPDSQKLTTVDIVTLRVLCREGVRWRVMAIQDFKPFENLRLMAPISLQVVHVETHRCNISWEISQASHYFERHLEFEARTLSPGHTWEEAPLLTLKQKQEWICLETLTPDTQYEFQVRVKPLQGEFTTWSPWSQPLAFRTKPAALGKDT
Chain of IL-2 receptor beta/gamma (Homo sapiens) (P31785 23-262, chain 2 of 2, further chain): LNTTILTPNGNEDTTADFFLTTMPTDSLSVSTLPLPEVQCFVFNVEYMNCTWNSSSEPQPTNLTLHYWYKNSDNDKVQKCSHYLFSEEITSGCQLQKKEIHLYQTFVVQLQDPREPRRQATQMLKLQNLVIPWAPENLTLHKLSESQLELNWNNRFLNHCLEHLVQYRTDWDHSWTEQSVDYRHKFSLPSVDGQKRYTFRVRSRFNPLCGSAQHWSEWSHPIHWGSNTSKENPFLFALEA
Chain of human interleukin-2 (recombinant IL-2, Humanzyme) (P60568 21-153): as the sequence (P60568 21-153) above

IL-2 (from UniProt P60568)
Kd [1]: 1 nM

B1: F5111, fully human anti-human IL-2 IgG (antibody, V domains shown)
VH: QLQLQESGPGLVKPSQTLSLTCTVSGGSISSGGYYWSWIRQHPGKGLEWIGYIYYSGSTYYNPSLKSRVTISVDTSKNQFSLKLSSVTAADTAVYYCARTPTVTGDWFDPWGRGTLVTVSS
VL: NFMLTQPHSVSESPGKTVTISCTRSSGSIASNYVQWYQQRPGSSPTTVIYEDNQRPSGVPDRFSGSIDSSSNSASLTISGLKTEDEADYYCQSYDSSNVVFGGGTKLTVL
binding result [2]: binds

B2: F5111 Fab (Fab, V domains shown)
VH: B1 VH
VL: B1 VL
binding result [3]: binds
